Measured values published in patent US12679878B2, “CRF2 receptor agonists and their use in therapy” (SANOFI, priority 2020, dated 2026).
Starred links: 1 amine or outer side, 2 acyl side, 3 side chain; linkers in the order of their positions; H or OH if unused. Non-standard residues stand in square brackets, D forms with d. Groups on a side chain read outwards from the residue. No end group written: not given here. *: point of attachment. γGlu = O=C(O)[C@H](CCC(=O)[*:2])N[*:1]; Palmitoyl = CCCCCCCCCCCCCCCC(=O)*; Aib = CC(C)(N)C(=O)O

B1: peptide of SEQ ID NO: 25 (peptide)
peptide: IVLSLD[dV]PTKLK([γGlu-Palmitoyl])KKLLKQERKRKEREKAEKNARILERV-NH2
modifications: N-terminus assumed
SMILES: CCCCCCCCCCCCCCCC(=O)N[C@@H](CCC(=O)NCCCC[C@H](NC(=O)[C@H](CC(C)C)NC(=O)[C@H](CCCCN)NC(=O)[C@@H](NC(=O)[C@@H]1CCCN1C(=O)[C@H](NC(=O)[C@H](CC(=O)O)NC(=O)[C@H](CC(C)C)NC(=O)[C@H](CO)NC(=O)[C@H](CC(C)C)NC(=O)[C@@H](NC(=O)[C@@H](N)[C@@H](C)CC)C(C)C)C(C)C)[C@@H](C)O)C(=O)N[C@@H](CCCCN)C(=O)N[C@@H](CCCCN)C(=O)N[C@@H](CC(C)C)C(=O)N[C@@H](CC(C)C)C(=O)N[C@@H](CCCCN)C(=O)N[C@@H](CCC(N)=O)C(=O)N[C@@H](CCC(=O)O)C(=O)N[C@@H](CCCNC(=N)N)C(=O)N[C@@H](CCCCN)C(=O)N[C@@H](CCCNC(=N)N)C(=O)N[C@@H](CCCCN)C(=O)N[C@@H](CCC(=O)O)C(=O)N[C@@H](CCCNC(=N)N)C(=O)N[C@@H](CCC(=O)O)C(=O)N[C@@H](CCCCN)C(=O)N[C@@H](C)C(=O)N[C@@H](CCC(=O)O)C(=O)N[C@@H](CCCCN)C(=O)N[C@@H](CC(N)=O)C(=O)N[C@@H](C)C(=O)N[C@@H](CCCNC(=N)N)C(=O)N[C@H](C(=O)N[C@@H](CC(C)C)C(=O)N[C@@H](CCC(=O)O)C(=O)N[C@@H](CCCNC(=N)N)C(=O)N[C@H](C(N)=O)C(C)C)[C@@H](C)CC)C(=O)O
B2: peptide of SEQ ID NO: 26 (peptide)
peptide: IVLSLD[dV]PTKLK([γGlu-Palmitoyl])KKLLKQERKRKERE[Aib]AEKNARILERV-NH2
modifications: N-terminus assumed
SMILES: CCCCCCCCCCCCCCCC(=O)N[C@@H](CCC(=O)NCCCC[C@H](NC(=O)[C@H](CC(C)C)NC(=O)[C@H](CCCCN)NC(=O)[C@@H](NC(=O)[C@@H]1CCCN1C(=O)[C@H](NC(=O)[C@H](CC(=O)O)NC(=O)[C@H](CC(C)C)NC(=O)[C@H](CO)NC(=O)[C@H](CC(C)C)NC(=O)[C@@H](NC(=O)[C@@H](N)[C@@H](C)CC)C(C)C)C(C)C)[C@@H](C)O)C(=O)N[C@@H](CCCCN)C(=O)N[C@@H](CCCCN)C(=O)N[C@@H](CC(C)C)C(=O)N[C@@H](CC(C)C)C(=O)N[C@@H](CCCCN)C(=O)N[C@@H](CCC(N)=O)C(=O)N[C@@H](CCC(=O)O)C(=O)N[C@@H](CCCNC(=N)N)C(=O)N[C@@H](CCCCN)C(=O)N[C@@H](CCCNC(=N)N)C(=O)N[C@@H](CCCCN)C(=O)N[C@@H](CCC(=O)O)C(=O)N[C@@H](CCCNC(=N)N)C(=O)N[C@@H](CCC(=O)O)C(=O)NC(C)(C)C(=O)N[C@@H](C)C(=O)N[C@@H](CCC(=O)O)C(=O)N[C@@H](CCCCN)C(=O)N[C@@H](CC(N)=O)C(=O)N[C@@H](C)C(=O)N[C@@H](CCCNC(=N)N)C(=O)N[C@H](C(=O)N[C@@H](CC(C)C)C(=O)N[C@@H](CCC(=O)O)C(=O)N[C@@H](CCCNC(=N)N)C(=O)N[C@H](C(N)=O)C(C)C)[C@@H](C)CC)C(=O)O

Molecular target: T1, CRF1R receptor (anti-target) (UniProt P34998 24-415, limits assumed)
T1 sequence (looked up): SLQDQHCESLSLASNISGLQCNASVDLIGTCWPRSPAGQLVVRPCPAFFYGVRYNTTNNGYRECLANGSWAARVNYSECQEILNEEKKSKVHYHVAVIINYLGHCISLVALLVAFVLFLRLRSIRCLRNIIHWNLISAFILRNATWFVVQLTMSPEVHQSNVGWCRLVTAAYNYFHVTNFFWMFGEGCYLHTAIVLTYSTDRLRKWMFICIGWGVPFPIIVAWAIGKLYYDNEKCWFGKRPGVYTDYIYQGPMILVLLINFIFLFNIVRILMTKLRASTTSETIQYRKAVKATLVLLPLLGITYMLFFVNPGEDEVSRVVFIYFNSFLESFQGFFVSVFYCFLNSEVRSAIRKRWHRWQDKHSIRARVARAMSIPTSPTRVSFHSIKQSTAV
Test: cell-based or functional assay

Binder | EC50 [nM] 0% HSA (cAMP, HTRF) [nM] | Emax (%) (100% = Sauvagine at 100 nM)
B1 | > 100 | 0.1
B2 | > 100 | 0.6
